Measurements reported in US20060253917A1 (published 2006).
Ends that are not written are not given here.

T1: OsGF14-c aa 1-150 (Oryza sativa, UniProt Q6ZKC0 1-150)
T1 construct: bait, Gal4 DBD fusion; also called PN12464; O. sativa 14-3-3 Protein Homolog GF14-c
T1 sequence: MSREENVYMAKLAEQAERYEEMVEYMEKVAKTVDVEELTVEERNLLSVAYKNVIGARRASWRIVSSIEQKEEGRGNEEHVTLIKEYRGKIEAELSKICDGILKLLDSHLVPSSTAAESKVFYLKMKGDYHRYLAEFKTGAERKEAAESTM

T2: OsERP (PN20696) aa 50-145 (Oryza sativa, UniProt Q0JBH9 50-144)
T2 construct: bait, Gal4 DBD fusion; also called Elicitor responsive protein
T2 sequence: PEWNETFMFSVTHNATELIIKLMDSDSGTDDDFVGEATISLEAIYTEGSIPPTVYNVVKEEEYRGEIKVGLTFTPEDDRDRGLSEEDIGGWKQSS


biological target: T1, OsGF14-c aa 1-150; test: Y2H; input trait library
How it was run: (§1)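 Myriad Genetics Inc. (Salt Lake City, Utah) supplied the automated, high-throughput yeast two-hybrid assay used to detect protein-protein interactions. A bait clone encoding a defined amino-acid fragment of a rice protein was screened against a rice prey library, either the input trait or the output trait library. To identify the interacting proteins, prey clones were retrieved and their encoding sequences were compared against databases by BLAST.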

Row | Binder | binding result
1 | OsPN30974 aa 38-178 (other, prey, AD fusion; also called Novel Protein PN30974) GGYDHPGLIPGLPDEISLQILARMPRMGYLNAKMVSRSWKAAITGVELYRVRKELGVSEEWLYMLTKSDDGKLVWNAFDPVCGQWQRLPLMPGISHGGECKRGIPGLWLGDLLSAGIRVSDVIRGWLGQRDSLDRLPFCGC | binds
2 | OsRCAA1 aa 68-210 (other, prey, AD fusion; also called PN19842; O. sativa Ribulose Bisphosphate Carboxylase/Oxygenase Activase, Large Isoform A1) DISDDQQDITRGKGFVDSLFQAPTGDGTHEAVLSSYEYLSQGLRTYDFDNTMGGFYIAPAFMDKLVVHISKNFMTLPNIKVPLILGIWGGKGQGKSFQCELVFAKMGINPIMMSAGELESGNAGEPAKLIRQRYREAADIIKK | binds
3 | OsPN23061 aa 94-203 (other, prey, AD fusion; also called Hypothetical Protein OsContig3864, Similar to H. vulgare Photosystem I Reaction Center Subunit II, Chloroplast Precursor) VITWTSPKEQVFEMPTGGAAIMREGPNLLKLARKEQCLALGTRLRSKYKINYQFYRVFPNGEVQYLHPKDGVYPEKVNAGRQGVGQNFRSIGKNVSPIEVKFTGKNVFDI | binds
4 | OsPN22866 aa 95-305 (other, prey, AD fusion; also called Novel Protein PN22866, Fragment, Similar to A. Thaliana Vacuolar ATP Synthase Subunit C) LLALSDDLVKSNVFIEGVSHKIRRQIEELERAGGVESGALTVDGVPVDTYLTRFVWDEGKYPTMSPLKEIAGSIQSQVSKIEDDMKVRGAEYNNVRSQLNAINRKQTGSLAVRDLSNLVKPEDMVTSEHLVTLLAVVPQYSQKDWLSSYESLDTFVVPRSSKKLYEDNEYALYTVTLFAKVVDNFKVRAREKGFQVRDFEYSSEAQESRKE | binds
5 | OsPN22874 aa 1-88 (other, prey, AD fusion; also called Novel Protein 22874, Fragment, similar to Arabidopsis Putative Phosphatidylinositol-4-phosphate 5-kinase) GTNPGFRVGEIRLSNRDIYFGTLLGNTPEGSGRYVWSDGCTYDGEWRRGMRHGQGKTMWPSGATYEGEYSGGYIYGEGTYTGSDNIVY | binds
6 | OsBAA02730 aa 206-269 (other, prey, AD fusion; also called PN22832; O. sativa Fructose-Bisphosphate Aldolase, Chloroplast Precursor) QDNGLVPIVEPEILLDGEHGIDRTFEVAQKVWAETFFYMAENNVMFEGILLKPSMVTPGAECKD | binds
7 | OsPN23059 aa 193-333 (other, prey, AD fusion; also called OsContig4331, O. sativa Putative 33 kDa Oxygen-Evolving Protein of Photosystem II) DGIDYAAVTVQLPGGERVPFLFTIKNLVATGKPESFGGPFLVPSYRGSSFLDPKGRGGSTGYDNAVALPAGGRGDEEELAKENVKNASSSTGNITLSVTKSKPETGEVIGVFESVQPSDTDLGAKVPKDVKIQGVWYAQLE | binds

Continued, values first:

Row | binding result | Binder
8 | binds | OsPN22858 aa 27-154 (other, prey, AD fusion; also called Novel Protein 22858, Fragment, similar to Arabidopsis GTP Cyclohydrolase II) DKPTDGFSSIDEAIGALHEGKFVIAVDDESGDNEGDLVMAATLADPESIAFMIRNGSGIISVGMKEEDLTRLMIPMMSPIAEIEDISAAASTVTVDARVGISTGVSAADRAKTIFTLASPDSKPTDLR
9 | binds | SPEEWSPTGDTYVGGTTGLLIWAVTLAGLLGGGALLVYNTSALAG (other, not fully specified, prey, AD fusion; also called PN22840; O. sativa Photosystem II 10 kDa Polypeptide) [OsAAB46718 aa 82-126]
10 | binds | AIDTYDDHRMAMAFSLAACADVPVTIRDPGCTRKTFPNYFDVLSTFVRN (other, not fully specified; cysteine pairing not given here, prey, AD fusion; also called PN22844; O. sativa 3-Phosphoshikimate 1-carboxyvinyltransferase (EPSP Synthase)) [OsBAB61062 aa 463-511]
11 | binds | OsPN23059 aa 90-169 (other, prey, AD fusion; also called OsContig4331) PRRLTFDEIQSKTYMEVKGTGTANQCPTVEGGVDSFAFKAGKYNMKKFCLEPTSFTVKAEGVAKNAPPEFQKTKLMTRLT
12 | binds | OsPN29982 aa 201-300 (other, prey, AD fusion; also called Novel Protein PN29982) SPVVDNADVTETKPQTELPVHVMCAEWSSQKRLKKVQLETLERVYSRTKRPTNTMISSIVQVTSLPRKTIVKWFEDRREQDGVPDHRVAFKRSLSETIAS
13 | binds | OsPN30846 aa 1-266 (other, prey, AD fusion; also called Novel Protein PN30846) APRRPSTFLNAVALGNVGAGKSAVLNSLIGHPVLPTGENGATRAPIVVDLQRDPGLSSKSIVLQIDSKSQRVSASSLRHSLQDRLSKGASSGSSRGRVEGINLKLRTSTAPPLKLVDLPGIDQRAVDDPMINEYAGHNDAILLVVIPAMQAADVASSRALRLAKDIDADGTRTVGVISKVDQAEGDAKTIACVQALLLNKGPKNLPDIEWVALIGQSVAIASAQAAGSENSLETAWNAEAETLRSILTGAPKSKLGRIALVDTIAK

biological target: T2, OsERP (PN20696) aa 50-145; test: Y2H; input trait library
How it was run: as §1

Row | Binder | binding result
14 | PN30868 aa 167-336 (other, prey, AD fusion) YNELAQLRAGKSSKSKLLIAKFKSPKSLNGWEVDQGSYFPNTFASRFDEGIDASFDFSEAGQAVFSGFVFTRGGYVEISKRLSLPLGSTLDRYDGLLFSVGGNGRSYVVILETGPLADTSQSKKYFARMTTKVGFCRVRVPFSAFRPVNPQDPPLDPFLVHTLTIRFEPK | binds
15 | PN30844 aa 1-64 (other, prey, AD fusion; also called Novel protein PN30844) VAVRKKETRDGAMQTMPSRVQQGAADFEETLFVRCHLYCSGGAGTGKPLRFEPRPFLLSAVAVE | binds
16 | APSSSSGTTSRPTASRTQQTKGRLTVTISLKAYSPGRT (other, prey, AD fusion; also called Novel Protein PN29984) [PN29984 aa 1-38] | binds
17 | SSGTTSRPTASRTQQTKGRLTVTISLKAYSPGRTRSG (other, prey, AD fusion; also called Novel Protein PN29984) [PN29984 aa 5-41] | binds
18 | PN30843 aa 164-221 (other, cysteine pairing not given here; also: AD fusion, prey, AD fusion; also called Ubiquitin specific protease-like) RALQNFTAEELLDGGEKQYQCQRCRKKVVAKKKFTIDKAPYVLTIHLKRFSPFNPREK | binds
19 | PN29983 aa 1-131 (other, prey, AD fusion; also called Novel protein PN29983) GVETVVTDTAGNKVVVTGAADAAELKERIEARTKKAVQIVSAGAGPPPKKDKEEKKDKDKKGGGDDKKAEKEKGGGGGDKKAEKEKGGGDKPKEEKKAKEPKEETVTLKIRLHCEGCIDRIKRRICKIKGG | binds
20 | PN30857 aa 1-148 (other, prey, AD fusion; also called Novel protein PN30857) QDTRPLQAQRRRHGGGPQDRQREPSQGDFLRRQREEHPGGEEDRAPHGAGGHAAAGEGRGPRAGEHPQHQGGAAGAVGGGREGGGRAHLLRPRRHRDIGDRVGHTYCLSRLRRIAQNEQPSIHPCPSLAGQVIIRWEFRIGRDNNTFQ | binds

The remaining lines, values ahead:

Row | binding result | Binder
21 | binds | PN30870 aa 1-446 (other, prey, AD fusion; also called Isp-4 like) GEEDEHPHEGRAGVERRRQHVVVLLPPPLAVLEHEVVEDGARDEPARDVGRRRRRHPGEPVGDDGDVDERDPLLLRERPAEQPHRHGQHGAGEEQPHQVAVQAVAAEQPGGADEPPDHRRVERDPVLGARPRAVRVQRLHVADVVDAAQHPPRHRQVHHAGDHRAHQLRRVHAPRRDLHVVPQLEVREERQRVHRADPPVDLEQQVRDRLPRQRVPDHELRDDVVPRLLVGGGLDDADGEGDDEGEGEGEEHPPPRQLHLLPVHERHDQRHGDAADEQHEEPPLRHLLVPPHQLRVHVHLRRRGAHRRPALPPDVPAVEQRHVHDRRREPQEPGPDGDGEQRAQVQLPVALVRRHVEVELPREHLGGVVLLPGRREQLVGEDWELPRVERVELPVAERHDEVDEHDEARGGVGDGRPRRHQRAPVVRRDAGPVQCEGADAEAVVAG
22 | binds | PN30845 aa 1-64 (other, prey, AD fusion; also called Pectinesterase-like) GDQGRTYLFRVSNVGVKTSVNVRIQGHSLRLVEVEGTHPVQNVYDSLDVHVGQSVAFLVTLDKA
